Among the data in publication PMC3947452 are IC50 values, retold here.

By IC50 is commonly meant the concentration that inhibits the measured activity by half. A lower IC50 goes with higher potency.

The target of this test is Flag-tagged PKMζ (protein kinase M ζ) (human) (UniProt Q05513). In words: co-IP.
UniProt Q05513, sequence (Q05513 184-592): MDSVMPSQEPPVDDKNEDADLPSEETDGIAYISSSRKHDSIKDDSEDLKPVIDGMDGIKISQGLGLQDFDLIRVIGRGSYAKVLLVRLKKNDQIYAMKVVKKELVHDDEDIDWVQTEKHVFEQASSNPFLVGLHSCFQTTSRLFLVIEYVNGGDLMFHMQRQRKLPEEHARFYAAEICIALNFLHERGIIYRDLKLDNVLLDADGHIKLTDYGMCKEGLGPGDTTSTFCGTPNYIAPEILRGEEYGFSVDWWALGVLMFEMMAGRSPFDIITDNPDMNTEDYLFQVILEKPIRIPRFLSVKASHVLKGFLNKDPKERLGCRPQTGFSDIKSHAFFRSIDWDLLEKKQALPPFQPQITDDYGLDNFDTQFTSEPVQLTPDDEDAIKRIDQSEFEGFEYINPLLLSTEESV

Substance “synthetic biotin-labeled peptide containing the binding motif (KIBRA position 948-978)” showed an IC50 of 60 nM.
